Source: article PMC10638403

Target: full-length E. coli ClpX (E. coli) (UniProt P0A6H1)

FITC-casein gave a rate of ClpP degradation of FITC-casein (50 µM, 30 °C) supported by full-length ∆NPS ClpX against wild-type ClpX (against ~10-fold for ∆NPS ClpX^∆N over ClpX^∆N) of 2 fold.
